Reference: patent publication US20120172295A1 (INDIANA UNIVERSITY RESEARCH AND TECHNOLOGY, published 2012)
Read-outs that look alike come from different tables or passages of the source. Positions of bridges follow the written chain, without caps; N, C: chain ends. Non-standard residues stand in square brackets, D forms with d. Groups on a side chain read outwards from the residue. No end group written: not given here. *: point of attachment. PEG40kDa = 40 kDa polyethylene glycol; Stearoyl = CCCCCCCCCCCCCCCCCC(=O)*; Palmitoyl = CCCCCCCCCCCCCCCC(=O)*; Myristoyl = CCCCCCCCCCCCCC(=O)*; Dab = NCC[C@H](N)C(=O)O; Aib = CC(C)(N)C(=O)O

Tests used:
Assay in all cases: cell-based or functional assay
[1] = target: T1, GLP-1 receptor (UniProt P43220 24-463, limits assumed)
[2] = target: T2, glucagon receptor (UniProt P47871 26-477, limits assumed)
T2 sequence (P47871 26-477 limits assumed): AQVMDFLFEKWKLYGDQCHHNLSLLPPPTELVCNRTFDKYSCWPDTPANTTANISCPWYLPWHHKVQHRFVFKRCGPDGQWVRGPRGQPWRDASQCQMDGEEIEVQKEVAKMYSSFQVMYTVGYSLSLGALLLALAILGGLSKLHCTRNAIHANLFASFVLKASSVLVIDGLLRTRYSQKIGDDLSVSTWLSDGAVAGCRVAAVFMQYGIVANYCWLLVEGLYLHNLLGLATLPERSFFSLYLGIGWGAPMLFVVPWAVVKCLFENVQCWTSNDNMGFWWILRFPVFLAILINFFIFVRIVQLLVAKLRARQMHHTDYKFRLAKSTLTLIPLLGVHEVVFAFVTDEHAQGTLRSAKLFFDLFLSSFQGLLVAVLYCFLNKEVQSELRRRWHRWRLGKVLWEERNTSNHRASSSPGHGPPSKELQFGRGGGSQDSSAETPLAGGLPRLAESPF

[3] = target: T1, GLP-1 receptor; remark: listed apart in the source
[4] = target: T2, glucagon receptor; remark: listed apart in the source
[5] = target: T1, GLP-1 receptor; remark: listed apart in the source
[6] = target: T2, glucagon receptor; remark: listed apart in the source
[7] = target: T1, GLP-1 receptor; remark: listed apart in the source
[8] = target: T2, glucagon receptor; remark: listed apart in the source
[9] = target: T2, glucagon receptor; remark: listed apart in the source
[10] = target: T1, GLP-1 receptor; remark: listed apart in the source
[11] = target: T1, GLP-1 receptor; remark: listed apart in the source
[12] = target: T2, glucagon receptor; remark: listed apart in the source
[13] = target: T1, GLP-1 receptor; remark: listed apart in the source

B1: Peptide 81** (SEQ ID NO: 618) (peptide)
peptide: H[Aib]QGTFTSDK([Ala-Ala-Myristoyl])SKYLD[Aib]RRAQDFVCWLMNT-NH2
modifications: N-terminus assumed
SMILES: CCCCCCCCCCCCCC(=O)N[C@@H](C)C(=O)N[C@@H](C)C(=O)NCCCC[C@H](NC(=O)[C@H](CC(=O)O)NC(=O)[C@H](CO)NC(=O)[C@@H](NC(=O)[C@H](Cc1ccccc1)NC(=O)[C@@H](NC(=O)CNC(=O)[C@H](CCC(N)=O)NC(=O)C(C)(C)NC(=O)[C@@H](N)Cc1c[nH]cn1)[C@@H](C)O)[C@@H](C)O)C(=O)N[C@@H](CO)C(=O)N[C@@H](CCCCN)C(=O)N[C@@H](Cc1ccc(O)cc1)C(=O)N[C@@H](CC(C)C)C(=O)N[C@@H](CC(=O)O)C(=O)NC(C)(C)C(=O)N[C@@H](CCCNC(=N)N)C(=O)N[C@@H](CCCNC(=N)N)C(=O)N[C@@H](C)C(=O)N[C@@H](CCC(N)=O)C(=O)N[C@@H](CC(=O)O)C(=O)N[C@@H](Cc1ccccc1)C(=O)N[C@H](C(=O)N[C@@H](CS)C(=O)N[C@@H](Cc1c[nH]c2ccccc12)C(=O)N[C@@H](CC(C)C)C(=O)N[C@@H](CCSC)C(=O)N[C@@H](CC(N)=O)C(=O)N[C@H](C(N)=O)[C@@H](C)O)C(C)C
[1]
  EC50: 0.018 nM

## HSQGTFTSDK([Trp-Palmitoyl])SKYLDERRAKDFVC(PEG 40 kDa)WLMNT-NH2 [E16 K20-glucagon-NH2 with K10-W-C16 and C24-40K PEG (SEQ ID NO: 546)]
[2]
  EC50: 0.52 nM
[3]
  EC50: 0.23 nM
[4]
  EC50: 0.54 nM
[5]
  EC50: 0.23 nM

## HSQGTFTSDYSKYLDEQAAKEFIAWLVKG-NH2 [E16 GLP(17-29)-NH2]
[6]
  cAMP induction EC50: 0.46 nM
[7]
  cAMP induction EC50: 0.01 nM

## HSQGTFTSDYSKYLDEQAAKEFIAWLMNT-NH2 [E16 GLP(17-26)Glu(27-29)-NH2]
[6]
  cAMP induction EC50: 0.076 nM
[7]
  cAMP induction EC50: 0.014 nM

## HS[Dab](Ac)GTFTSDYSKYLD[Aib]RRATDFVTWLLDE [HSDab(Ac)…ibRRATDFVTWLLDE (SEQ ID NO: 606)]
[8]
  % activity: 46%
  EC50: 0.057 nM

## HSQGTFTSDYSKYLDSRRAQDFVQWLVKGGPSSGAPPPS-NH2 [VKGG30 PSSGAPPPS (SEQ ID NO: 524)]
[9]
  EC50: 1.16 nM
  Relative Potency (%): 7%
[10]
  EC50: 0.21 nM
  Relative Potency (%): 12%

B2: Peptide Chimera 2-AIB2-K30-acylated (peptide)
peptide: HXQGTFTSDYSKYLDEQAAKEFICWLMNTK
modifications: AIB at 2; Lys acylated with C18 (text says position 10, the name and the sequence say K30); 40 kDa PEG on Cys 24; C-terminal amide
[11]
  EC50: 0.007 nM

## HSQGTFTSDYSKYLDEQAAKEFIC(PEG 40 kDa)WLMNT-NH2 [Chimera 2 Cys24 (40K)]
[4]
  EC50: 2.83 nM
[5]
  EC50: 0.04 nM

B3: E16 GLP(17-29)-NH2 E24, K28 Lactam (peptide)
peptide: HSQGTFTSDYSKYLDEQAAKEFIEWLVKG-NH2
modifications: lactam 24-28; N-terminus assumed
SMILES: CC[C@H](C)[C@H](NC(=O)[C@H](Cc1ccccc1)NC(=O)[C@H](CCC(=O)O)NC(=O)[C@H](CCCCN)NC(=O)[C@H](C)NC(=O)[C@H](C)NC(=O)[C@H](CCC(N)=O)NC(=O)[C@H](CCC(=O)O)NC(=O)[C@H](CC(=O)O)NC(=O)[C@H](CC(C)C)NC(=O)[C@H](Cc1ccc(O)cc1)NC(=O)[C@H](CCCCN)NC(=O)[C@H](CO)NC(=O)[C@H](Cc1ccc(O)cc1)NC(=O)[C@H](CC(=O)O)NC(=O)[C@H](CO)NC(=O)[C@@H](NC(=O)[C@H](Cc1ccccc1)NC(=O)[C@@H](NC(=O)CNC(=O)[C@H](CCC(N)=O)NC(=O)[C@H](CO)NC(=O)[C@@H](N)Cc1c[nH]cn1)[C@@H](C)O)[C@@H](C)O)C(=O)N[C@H]1CCC(=O)NCCCC[C@@H](C(=O)NCC(N)=O)NC(=O)[C@H](C(C)C)NC(=O)[C@H](CC(C)C)NC(=O)[C@H](Cc2c[nH]c3ccccc23)NC1=O
[6]
  cAMP induction EC50: 0.16 nM
[7]
  cAMP induction EC50: 0.007 nM

## H[Aib]QGTFTSDYSKYLDEQAAKEFICWLMNT (lactam 16-20) [Peptide Y]
[12]
  % activity of native glucagon: 99.5%

## H[Aib]QGTFTSDYSKYLDEQAAKEFIC([maleimide-PEG 40 kDa])WLMNT [Peptide X-PEG]
[12]
  % activity of native glucagon: 1.9%
  EC50 (cAMP, CRE-luciferase): 2.9 nM

## H[Aib]QGTFTSDK(Stearoyl)SKYLDEQAAKEFIC(PEG40kDa)WLMNT-NH2 [Peptide Chimera 2-AIB2-K10-acylated]
[11]
  EC50: 0.465 nM

## HSQGTFTSDYSKYLDSRRAQDFVQWLMDGGPSSGAPPPS-NH2 [MDGG30 PSSGAPPPS (SEQ ID NO: 525)]
[9]
  EC50: 0.12 nM
  Relative Potency (%): 72%
[10]
  EC50: 0.13 nM
  Relative Potency (%): 19%

## HSQGTFTSDYSKYLDEQAAKEFIEWLVKG-NH2 [E16 GLP(17-29)-NH2 E24, K28]
[6]
  cAMP induction EC50: 0.23 nM
[7]
  cAMP induction EC50: 0.007 nM

## HSQGTFTSDK(Stearoyl)SKYLDERRAKDFVC(PEG 40 kDa)WLMNT-NH2 [E16 K20-glucagon-NH2 with K10-C18 and C24-40K PEG (SEQ ID NO: 547)]
[2]
  EC50: 0.84 nM
[3]
  EC50: 0.15 nM
[4]
  EC50: 0.84 nM
[5]
  EC50: 0.15 nM

## HSQGTFTSDK([Trp-Palmitoyl])SKYLDERRAKDFVQWLMNT-NH2 [E16 K20-glucagon-NH2 with K10-W-C16]
[13]
  EC50: 0.05 nM

## HS[Dab](Ac)GTFTSDYSKYLD[Aib]RRASDFVSWLLDE [HSDab(Ac)…ibRRASDFVSWLLDE (SEQ ID NO: 605)]
[8]
  % activity: 54%
  EC50: 0.048 nM

B4: HSDab(Ac)…ibRRAADFVAWLLDTGPSSGAPPPS amide (SEQ ID NO: 604) (peptide)
peptide: HS[Dab](Ac)GTFTSDYSKYLD[Aib]RRAADFVAWLLDTGPSSGAPPPS-NH2
modifications: N-terminus assumed
SMILES: CC(=O)NCC[C@H](NC(=O)[C@H](CO)NC(=O)[C@@H](N)Cc1c[nH]cn1)C(=O)NCC(=O)N[C@H](C(=O)N[C@@H](Cc1ccccc1)C(=O)N[C@H](C(=O)N[C@@H](CO)C(=O)N[C@@H](CC(=O)O)C(=O)N[C@@H](Cc1ccc(O)cc1)C(=O)N[C@@H](CO)C(=O)N[C@@H](CCCCN)C(=O)N[C@@H](Cc1ccc(O)cc1)C(=O)N[C@@H](CC(C)C)C(=O)N[C@@H](CC(=O)O)C(=O)NC(C)(C)C(=O)N[C@@H](CCCNC(=N)N)C(=O)N[C@@H](CCCNC(=N)N)C(=O)N[C@@H](C)C(=O)N[C@@H](C)C(=O)N[C@@H](CC(=O)O)C(=O)N[C@@H](Cc1ccccc1)C(=O)N[C@H](C(=O)N[C@@H](C)C(=O)N[C@@H](Cc1c[nH]c2ccccc12)C(=O)N[C@@H](CC(C)C)C(=O)N[C@@H](CC(C)C)C(=O)N[C@@H](CC(=O)O)C(=O)N[C@H](C(=O)NCC(=O)N1CCC[C@H]1C(=O)N[C@@H](CO)C(=O)N[C@@H](CO)C(=O)NCC(=O)N[C@@H](C)C(=O)N1CCC[C@H]1C(=O)N1CCC[C@H]1C(=O)N1CCC[C@H]1C(=O)N[C@@H](CO)C(N)=O)[C@@H](C)O)C(C)C)[C@@H](C)O)[C@@H](C)O
[8]
  % activity: 113%
  EC50: 0.023 nM

## HSQGTFTSDYSKYLDSRRAQDFVQWLMKGGPSSGAPPPS-NH2 [MKGG30 PSSGAPPPS (SEQ ID NO: 523)]
[9]
  EC50: 0.61 nM
  Relative Potency (%): 14%
[10]
  EC50: 0.8 nM
  Relative Potency (%): 3%
